Results on six proteins are retold here after patent US20180354988A1 (University of California, published 2018).

Series [1] deals with the molecule itself. In words: self-assembly, TEM.
Series [2] deals with the molecule itself. Kind of series: disulfide-mediated self-assembly.
Series [3] concerns the molecule itself. In words: oxidative self-assembly conditions; TEM.

B1: ^C98RhuA-ACP (enzyme)
chain: MQNITQSWFVQGMIKATTDAWLKGWDERNGGNLTLRLDDADIAPYHDNFHQQPRYIPLSQPMPLLANTPFIVTGSGKFFRNVQLDPAANLGIVKVDSCGAGYHILWGLTNEAVPTSELPAHFLSHSERIKATNGKDRVIMHCHATNLIALTYVLENDTAVFTRQLWEGSTECLVVFPDGVGILPWMVPGTDAIGQATAQEMQKHSLVLWPFHGVFGSGPTLDETFGLIDTAEKSAQVLVKVYSMGGMKQTISREELIALGKRFGVTPLASALALGSGSGSTIEERVKKIIGEQLGVKQEEVTNNASFVEDLGADSLDTVELVMALEEEFDTEIPDEEAEKITTVQAAIDYINGHQA
In the case of B1, the binding result in series [1] is reported as “binds”.

B2: ^C98RhuA-Pd4 (enzyme)
chain: MQNITQSWFVQGMIKATTDAWLKGWDERNGGNLTLRLDDADIAPYHDNFHQQPRYIPLSQPMPLLANTPFIVTGSGKFFRNVQLDPAANLGIVKVDSCGAGYHILWGLTNEAVPTSELPAHFLSHSERIKATNGKDRVIMHCHATNLIALTYVLENDTAVFTRQLWEGSTECLVVFPDGVGILPWMVPGTDAIGQATAQEMQKHSLVLWPFHGVFGSGPTLDETFGLIDTAEKSAQVLVKVYSMGGMKQTISREELIALGKRFGVTPLASALALGSGSGTSNAVHPTLRHL
notes: also called C98-RhuA-Pd4 mutant
Take B2: the binding result in series [1] was “binds”.

B3: ^C98RhuA-HisTag (enzyme)
chain: MQNITQSWFVQGMIKATTDAWLKGWDERNGGNLTLRLDDADIAPYHDNFHQQPRYIPLSQPMPLLANTPFIVTGSGKFFRNVQLDPAANLGIVKVDSCGAGYHILWGLTNEAVPTSELPAHFLSHSERIKATNGKDRVIMHCHATNLIALTYVLENDTAVFTRQLWEGSTECLVVFPDGVGILPWMVPGTDAIGQATAQEMQKHSLVLWPFHGVFGSGPTLDETFGLIDTAEKSAQVLVKVYSMGGMKQTISREELIALGKRFGVTPLASALALGSGSGHHHHHH
notes: also called RhuA-C98-HisTag; C98-His tagged RhuA mutant
B3: the binding result in series [1] was “binds”.

B4: ^C98RhuA (L-rhamnulose-1-phosphate aldolase variant D98C/C126S/E192A) (enzyme)
chain: MQNITQSWFVQGMIKATTDAWLKGWDERNGGNLTLRLDDADIAPYHDNFHQQPRYIPLSQPMPLLANTPFIVTGSGKFFRNVQLDPAANLGIVKVDSCGAGYHILWGLTNEAVPTSELPAHFLSHSERIKATNGKDRVIMHCHATNLIALTYVLENDTAVFTRQLWEGSTECLVVFPDGVGILPWMVPGTDAIGQATAQEMQKHSLVLWPFHGVFGSGPTLDETFGLIDTAEKSAQVLVKVYSMGGMKQTISREELIALGKRFGVTPLASALAL
notes: C4 symmetric homotetramer (4 x 274 residues); Tetramers link to each other through single C98-C98 disulfide bonds at the corners; also called RhuA-C98; Rhu-C98
B4: the binding result in series [2] is on record as “binds”.

B5: ^C133RhuA (enzyme)
chain: MQNITQSWFVQGMIKATTDAWLKGWDERNGGNLTLRLDDADIAPYHDNFHQQPRYIPLSQPMPLLANTPFIVTGSGKFFRNVQLDPAANLGIVKVDSDGAGYHILWGLTNEAVPTSELPAHFLSHSERIKATCGKDRVIMHCHATNLIALTYVLENDTAVFTRQLWEGSTECLVVFPDGVGILPWMVPGTDAIGQATAQEMQKHSLVLWPFHGVFGSGPTLDETFGLIDTAEKSAQVLVKVYSMGGMKQTISREELIALGKRFGVTPLASALAL
notes: Surface cysteine lies on the sides of the tetramer; also called RhuA-C133
Consider B5, for which the binding result in series [3] is reported as “binds”.

B6: ^C266RhuA (enzyme)
chain: MQNITQSWFVQGMIKATTDAWLKGWDERNGGNLTLRLDDADIAPYHDNFHQQPRYIPLSQPMPLLANTPFIVTGSGKFFRNVQLDPAANLGIVKVDSDGAGYHILWGLTNEAVPTSELPAHFLSHSERIKATNGKDRVIMHCHATNLIALTYVLENDTAVFTRQLWEGSTECLVVFPDGVGILPWMVPGTDAIGQATAQEMQKHSLVLWPFHGVFGSGPTLDETFGLIDTAEKSAQVLVKVYSMGGMKQTISREELIALGKRFGVCPLASALAL
notes: Surface cysteine lies on the sides of the tetramer; also called RhuA-C266
For the protein B6, in series [3], the binding result is recorded as “binds”.
